# How the values were obtained:
# [1] = target: the molecule itself; experiment: cross-linking; Ca2+-loaded proteins: 0.02% glutaric aldehyde, 16 h, 20 °C, protein 1 mg/mL, 20 mM Tricine-KOH pH 7.4, 50 mM KCl, 1 mM DTT, 1 mM CaCl2; SDS-PAGE, Coomassie, densitometry; self-association
# Method in brief: (§1)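 Metal-free recoverin (human, recombinant, E. coli-expressed, purified, treated by gel filtration), along with its modified forms, was crosslinked with 0.02% glutaric aldehyde at 1.0 mg/mL for 16 h at 20 °C. The buffer was 20 mM Tricine-KOH pH 7.4, 50 mM KCl and 1 mM DTT, plus EDTA, MgCl2/EGTA or CaCl2. The share of each oligomer band was quantified in Quantity One as a percentage from scanned, Coomassie-stained gels, which were 15% resolving SDS-PAGE run at 5 µg/lane.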
# [2] = target: the molecule itself; experiment: cross-linking; Mg2+-loaded proteins: 0.02% glutaric aldehyde, 16 h, 20 °C, protein 1 mg/mL, 20 mM Tricine-KOH pH 7.4, 50 mM KCl, 1 mM DTT, 1 mM MgCl2, 1 mM EGTA; SDS-PAGE, Coomassie, densitometry; self-association
# Method in brief: as §1
# [3] = target: the molecule itself; experiment: cross-linking; apo-proteins: 0.02% glutaric aldehyde, 16 h, 20 °C, protein 1 mg/mL, 20 mM Tricine-KOH pH 7.4, 50 mM KCl, 1 mM DTT, 1 mM EDTA; SDS-PAGE, Coomassie, densitometry; self-association
# Method in brief: as §1
Protein,"Dimer 50 kDa, % [1] [%]","Monomer 20 kDa, % [1] [%]","Multimer 100–250 kDa, % [1] [%]","Trimer 70–100 kDa, % [1] [%]","Dimer 50 kDa, % [2] [%]","Monomer 20 kDa, % [2] [%]","Dimer 50 kDa, % [3] [%]","Monomer 20 kDa, % [3] [%]"
"recombinant wild type human recoverin (natural protein, UniProt P35243 1-200, looked up, myristoyl group at the N terminus (degree of myristoylation exceeded 89%), recoverin, human, UniProt P35243; cDNA from Y79 retinoblastoma cells, amplified with primers from the start codon to the stop codon, subcloned into pET-15b(+) by NcoI and XhoI; also called rWT; rWT recoverin; source: E. coli pET15b rec/pBB131/BL21(DE3)RILLC+, purified (phenyl-Sepharose, Toyopearl SuperQ-650M)) MGNSKSGALSKEILEELQLNTKFSEEELCSWYQSFLKDCPTGRITQQQFQSIYAKFFPDTDPKAYAQHVFRSFDSNLDGTLDFKEYVIALHMTTAGKTNQKLEWAFSLYDVDGNGTISKNEVLEIVMAIFKMITPEDVKLLPDDENTPEKRAEKIWKYFGKNDDDKLTEKEFIEGTLANKEILRLIQFEPQKVKEKMKNA",30.9 ± 0.4,15.5 ± 0.6,21.55 ± 0.09,32 ± 1.1,31.55 ± 0.09,68.45 ± 0.09,33.1 ± 1.1,66.9 ± 1.1
"human recoverin mutant E169A (natural protein, UniProt P35243 1-200, looked up, myristoylated (fraction of non-myristoylated forms did not exceed 16%), recoverin, human, UniProt P35243, C-terminal 'black' cluster mutant; Parent construct as m1; source: E. coli, expressed and purified similarly to the rWT protein (phenyl-Sepharose, Toyopearl SuperQ-650M)) MGNSKSGALSKEILEELQLNTKFSEEELCSWYQSFLKDCPTGRITQQQFQSIYAKFFPDTDPKAYAQHVFRSFDSNLDGTLDFKEYVIALHMTTAGKTNQKLEWAFSLYDVDGNGTISKNEVLEIVMAIFKMITPEDVKLLPDDENTPEKRAEKIWKYFGKNDDDKLTAKEFIEGTLANKEILRLIQFEPQKVKEKMKNA",27 ± 0.3,16.1 ± 1.5,27.2 ± 0.9,29.6 ± 0.3,33.7 ± 0.5,66.3 ± 0.5,38.9 ± 1.2,61.1 ± 1.2
"human recoverin mutant F49A (natural protein, UniProt P35243 1-200, looked up, myristoylated (fraction of non-myristoylated forms did not exceed 16%), recoverin, human, UniProt P35243, N-terminal 'gray' cluster mutant; Parent construct as m1; source: E. coli, expressed and purified similarly to the rWT protein (phenyl-Sepharose, Toyopearl SuperQ-650M)) MGNSKSGALSKEILEELQLNTKFSEEELCSWYQSFLKDCPTGRITQQQAQSIYAKFFPDTDPKAYAQHVFRSFDSNLDGTLDFKEYVIALHMTTAGKTNQKLEWAFSLYDVDGNGTISKNEVLEIVMAIFKMITPEDVKLLPDDENTPEKRAEKIWKYFGKNDDDKLTEKEFIEGTLANKEILRLIQFEPQKVKEKMKNA",25.5 ± 0.5,30.6 ± 1.6,21.08 ± 0.09,22.8 ± 1.3,32.1 ± 0.5,67.9 ± 0.5,36.7 ± 1,63.3 ± 1
"human recoverin mutant Q46A (natural protein, UniProt P35243 1-200, looked up, myristoylated (fraction of non-myristoylated forms did not exceed 16%), recoverin, human, UniProt P35243, N-terminal 'gray' cluster mutant; Parent construct as m1; source: E. coli, expressed and purified similarly to the rWT protein (phenyl-Sepharose, Toyopearl SuperQ-650M)) MGNSKSGALSKEILEELQLNTKFSEEELCSWYQSFLKDCPTGRITAQQFQSIYAKFFPDTDPKAYAQHVFRSFDSNLDGTLDFKEYVIALHMTTAGKTNQKLEWAFSLYDVDGNGTISKNEVLEIVMAIFKMITPEDVKLLPDDENTPEKRAEKIWKYFGKNDDDKLTEKEFIEGTLANKEILRLIQFEPQKVKEKMKNA",27.3 ± 1.5,31.9 ± 1.9,18.4 ± 0.6,22.3 ± 1,30.2 ± 0.5,69.8 ± 0.5,35.1 ± 1.8,64.9 ± 1.8
"human recoverin mutant F172A (natural protein, UniProt P35243 1-200, looked up, myristoylated (fraction of non-myristoylated forms did not exceed 16%), recoverin, human, UniProt P35243, C-terminal 'black' cluster mutant; Parent construct as m1; source: E. coli, expressed and purified similarly to the rWT protein (phenyl-Sepharose, Toyopearl SuperQ-650M)) MGNSKSGALSKEILEELQLNTKFSEEELCSWYQSFLKDCPTGRITQQQFQSIYAKFFPDTDPKAYAQHVFRSFDSNLDGTLDFKEYVIALHMTTAGKTNQKLEWAFSLYDVDGNGTISKNEVLEIVMAIFKMITPEDVKLLPDDENTPEKRAEKIWKYFGKNDDDKLTEKEAIEGTLANKEILRLIQFEPQKVKEKMKNA",29.3 ± 0.2,22 ± 0.9,20 ± 0.3,28.8 ± 0.8,36.6 ± 0.7,63.4 ± 0.7,33.6 ± 2,66.4 ± 2
"human recoverin mutant W156A (natural protein, UniProt P35243 1-200, looked up, myristoylated (fraction of non-myristoylated forms did not exceed 16%), recoverin, human, UniProt P35243, C-terminal 'gray' cluster mutant; Parent construct as m1; source: E. coli, expressed and purified similarly to the rWT protein (phenyl-Sepharose, Toyopearl SuperQ-650M)) MGNSKSGALSKEILEELQLNTKFSEEELCSWYQSFLKDCPTGRITQQQFQSIYAKFFPDTDPKAYAQHVFRSFDSNLDGTLDFKEYVIALHMTTAGKTNQKLEWAFSLYDVDGNGTISKNEVLEIVMAIFKMITPEDVKLLPDDENTPEKRAEKIAKYFGKNDDDKLTEKEFIEGTLANKEILRLIQFEPQKVKEKMKNA",25 ± 1.1,20.4 ± 0.7,29.8 ± 0.9,24.8 ± 1,36.8 ± 0.2,63.2 ± 0.2,35.4 ± 0.8,64.6 ± 0.8
"human recoverin mutant F83A (natural protein, UniProt P35243 1-200, looked up, myristoylated (fraction of non-myristoylated forms did not exceed 16%), recoverin, human, UniProt P35243, N-terminal 'black' cluster mutant; Parent construct as m1; source: E. coli, expressed and purified similarly to the rWT protein (phenyl-Sepharose, Toyopearl SuperQ-650M)) MGNSKSGALSKEILEELQLNTKFSEEELCSWYQSFLKDCPTGRITQQQFQSIYAKFFPDTDPKAYAQHVFRSFDSNLDGTLDAKEYVIALHMTTAGKTNQKLEWAFSLYDVDGNGTISKNEVLEIVMAIFKMITPEDVKLLPDDENTPEKRAEKIWKYFGKNDDDKLTEKEFIEGTLANKEILRLIQFEPQKVKEKMKNA",28.7 ± 0.8,38.4 ± 1.4,13.2 ± 0.3,19.7 ± 0.4,33.8 ± 1,66.2 ± 1,35.6 ± 0.8,64.4 ± 0.8
"human recoverin mutant F35A (natural protein, UniProt P35243 1-200, looked up, myristoylated (fraction of non-myristoylated forms did not exceed 16%), recoverin, human, UniProt P35243, N-terminal 'black' cluster mutant; Parent construct as m1; source: E. coli, expressed and purified similarly to the rWT protein (phenyl-Sepharose, Toyopearl SuperQ-650M)) MGNSKSGALSKEILEELQLNTKFSEEELCSWYQSALKDCPTGRITQQQFQSIYAKFFPDTDPKAYAQHVFRSFDSNLDGTLDFKEYVIALHMTTAGKTNQKLEWAFSLYDVDGNGTISKNEVLEIVMAIFKMITPEDVKLLPDDENTPEKRAEKIWKYFGKNDDDKLTEKEFIEGTLANKEILRLIQFEPQKVKEKMKNA",31.7 ± 0.3,37.4 ± 3.6,13.2 ± 3.3,17.78 ± 0.07,30.9 ± 1.9,69.1 ± 1.9,37.2 ± 0.5,62.8 ± 0.5
"human recoverin mutant F70A (natural protein, UniProt P35243 1-200, looked up, myristoylated (fraction of non-myristoylated forms did not exceed 16%), recoverin, human, UniProt P35243, N-terminal 'gray' cluster mutant; Parent construct as m1; source: E. coli, expressed and purified similarly to the rWT protein (phenyl-Sepharose, Toyopearl SuperQ-650M)) MGNSKSGALSKEILEELQLNTKFSEEELCSWYQSFLKDCPTGRITQQQFQSIYAKFFPDTDPKAYAQHVARSFDSNLDGTLDFKEYVIALHMTTAGKTNQKLEWAFSLYDVDGNGTISKNEVLEIVMAIFKMITPEDVKLLPDDENTPEKRAEKIWKYFGKNDDDKLTEKEFIEGTLANKEILRLIQFEPQKVKEKMKNA",29.3 ± 1.1,40.1 ± 1.8,11.4 ± 0.2,19.1 ± 0.5,26.9 ± 0.9,73.1 ± 0.9,29.3 ± 1.7,70.7 ± 1.7
"human recoverin mutant V122A (natural protein, UniProt P35243 1-200, looked up, myristoylated (fraction of non-myristoylated forms did not exceed 16%), recoverin, human, UniProt P35243, C-terminal 'gray' cluster mutant; Parent construct as m1; source: E. coli, expressed and purified similarly to the rWT protein (phenyl-Sepharose, Toyopearl SuperQ-650M)) MGNSKSGALSKEILEELQLNTKFSEEELCSWYQSFLKDCPTGRITQQQFQSIYAKFFPDTDPKAYAQHVFRSFDSNLDGTLDFKEYVIALHMTTAGKTNQKLEWAFSLYDVDGNGTISKNEALEIVMAIFKMITPEDVKLLPDDENTPEKRAEKIWKYFGKNDDDKLTEKEFIEGTLANKEILRLIQFEPQKVKEKMKNA",27.1 ± 1.3,15.8 ± 0.2,26.7 ± 2.1,30.3 ± 0.6,35.3 ± 0.9,64.7 ± 0.9,27 ± 1.2,73 ± 1.2
"human recoverin mutant K119A (natural protein, UniProt P35243 1-200, looked up, myristoylated (fraction of non-myristoylated forms did not exceed 16%), recoverin, human, UniProt P35243, C-terminal 'gray' cluster mutant; Parent construct as m1; source: E. coli, expressed and purified similarly to the rWT protein (phenyl-Sepharose, Toyopearl SuperQ-650M)) MGNSKSGALSKEILEELQLNTKFSEEELCSWYQSFLKDCPTGRITQQQFQSIYAKFFPDTDPKAYAQHVFRSFDSNLDGTLDFKEYVIALHMTTAGKTNQKLEWAFSLYDVDGNGTISANEVLEIVMAIFKMITPEDVKLLPDDENTPEKRAEKIWKYFGKNDDDKLTEKEFIEGTLANKEILRLIQFEPQKVKEKMKNA",24.4 ± 0.6,19.5 ± 0.4,31.38 ± 0.05,24.7 ± 0.2,46.4 ± 5,53.6 ± 5,36.7 ± 0.8,63.3 ± 0.8
"human recoverin mutant F106A (natural protein, UniProt P35243 1-200, looked up, myristoylated (fraction of non-myristoylated forms did not exceed 16%), recoverin, human, UniProt P35243, C-terminal 'black' cluster mutant; Parent construct as m1; source: E. coli, expressed and purified similarly to the rWT protein (phenyl-Sepharose, Toyopearl SuperQ-650M)) MGNSKSGALSKEILEELQLNTKFSEEELCSWYQSFLKDCPTGRITQQQFQSIYAKFFPDTDPKAYAQHVFRSFDSNLDGTLDFKEYVIALHMTTAGKTNQKLEWAASLYDVDGNGTISKNEVLEIVMAIFKMITPEDVKLLPDDENTPEKRAEKIWKYFGKNDDDKLTEKEFIEGTLANKEILRLIQFEPQKVKEKMKNA",27.11 ± 0.08,17.9 ± 2.1,25 ± 0.8,30 ± 1.4,35.4 ± 1,64.6 ± 1,38 ± 0.3,62 ± 0.3
